“Also recorded” adds a separate entry of the source.
Tests used:
SNU-5 cells [1] = experiment: Cell growth by cell count (ADAM cell counter); format: cell-based, human; conditions: SNU-5, 10 μg/mL mAb, 72 hours post treatment
Description: (§1) In order to determine if these antibodies have any physiological effects on tumour cells, 10 μg/mL of mAb was added to SNU-5 cells. […] This indicates SU11274 mode of mechanism is by activation of caspase which in turn result in apoptosis of SNU-5 tumour cells.
Cells were seeded and treated with anti-α-chain c-Met monoclonal antibodies for 72 hrs. Cells were harvested and counted using the automated ADAM cell counter (Digital Bio, Korea).

[2] = biological target: T1, native c-Met on live SNU-5 cells (Homo sapiens, UniProt P08581); experiment: Temperature sensitivity of antibody binding by flow cytometry; conditions: live SNU-5, 10 μg/mL mAb, 1 hr
T1 construct: native c-Met expressed on the cell surface of SNU-5 cells; host or cells: SNU-5
Description: To determine if temperature affects the binding affinity of anti-α-chain monoclonal antibody to native c-Met, mAb 2, 13, 11 and 18 were incubated with live SNU-5 cells at 4° C. or 37° C. Binding of monoclonal antibody to native c-Met expressed on the cell surface of live SNU-5 cells was detected using anti-mouse secondary antibody conjugated with Alexa Fluor®488 dye and analysed by flow cytometry. Antibody binding, which correlates with fluorescence intensity, was compared at the different temperatures. […] It is plausible that the reduction of antibody binding is due to the unavailability of antibody's epitope on native c-Met expressed on live SNU-5 cells. c-Met is a dynamic protein at normal physiological temperature and becomes rigid at low temperature, causing certain epitopes to be obscured.
10 μg/mL of anti-α-chain monoclonal antibody were incubated with live SNU-5 cells for 1 hr at 4° C. or 37° C. Cells were harvested and washed once in cold PBS. Antibody binding to live cells was determined by Alexa Fluor®488-conjugated anti-mouse secondary antibodies (Invitrogen #A11029). Cells were resuspended in 1% BSA/PBS and analysed by flow cytometry.

c-Met α-chain peptides [3] = biological target: T2, c-Met α-chain peptides (Homo sapiens, UniProt P08581); experiment: Pepscan ELISA-based epitope mapping; format: binding; set-up: mAb 2 binding to peptide O27: dose or concentration left out as unconfirmed; conditions: absorbance at 450 nm
T2 construct: consecutive overlapping peptides that span the entire c-Met α-chain; purchased Mimotopes (Australia); host or cells: chemical synthesis
Description: (§2) Identifying the region of c-Met bound by the antibody is important in determining whether the antibody might be able to block c-Met from binding to its ligand, HGF. Using an ELISA-based assay (Pepscan), synthesised peptides were added to strepatvidin-coated plates and antibody binding to their respective epitopes was determined colorimetrically. The peptides were consecutive overlapping peptides that span the entire c-Met α-chain.
(§3) Peptides that were linked to biotin by an SGSG linker sequence at the N-terminus were synthesised by Mimotopes (Australia). Peptides for Pepscan: Peptides that span the entire α-chain of c-Met were synthesised. A total of fifty-five peptides with consecutive, overlapping sequences were synthesised. […]
(§4) Variations of peptides O28 and O29, where each amino acid residue was sequentially substituted for an alanine residue, were synthesised. […] Colour change was monitored by eye and the reaction was stopped by adding 100 mM sulphuric acid. Absorbance was read at 450 nm in a microplate reader (SPECTRAmax PLUS^384, Molecular Device, U.S.A.). […] Computer imaging of the epitopes were analysed by PyMol (DeLano Scientific LLC, U.S.A.) software.
(§5) Pepscan analysis was used to determine the region of c-Met α-chain bound by mAb 2. […] Binding of the antibody was detected by colorimetric assay and analysed by absorbance reading at […].

c-Met α-chain peptides [4] = experiment: Pepscan ELISA-based epitope mapping; format: binding, human; set-up: mAb 2 binding to peptide O27: dose or concentration left out as unconfirmed; conditions: absorbance at 450 nm
Description: as §2, §3, §4, §5

[5] = test system: caspase activation in SNU-5 cells; experiment: Caspase-Glo 3/7 caspase activation assay; format: cell-based, human; conditions: SNU-5, 72 hrs; mAb 10 μg/mL, SU11274 5 μM
Description: as §1
(§6) CellTiter-Glo® luminescent cell viability assay and Caspase-Glo® 3/7 Assay (Promega, U.S.A.) were used to determine cell viability and caspase activation respectively. SNU-5 cells (1×10^5 cells) were seeded in each 96-well and treated for 72 hrs before analysis. Cell viability and caspase activation were performed according to manufacturer's protocol. Luminescence was read using the EnVision plate reader (PerkinElmer, U.S.A.).

SNU-5 cells [6] = experiment: Cell proliferation by CellTracker Green BODIPY dye retention; format: cell-based, human; conditions: SNU-5, 10 μg/mL mAb, 6 days
Description: CellTracker BODIPY dye is a membrane permeable dye that enters cells freely. Once in the cell, the dye is converted to a membrane impermeable product which labels the cell green. The dye is passed on to dividing daughter cells but is not transferable to neighbouring cells. Dividing cells would fail to retain the green dye as it is being diluted to progeny cells. Cells were treated with 10 μg/mL of monoclonal antibodies for 6 days and dye retention in cells was analysed by flow cytometry.
SNU-5 cells were stained with 5 μM of CellTracker BODIPY dye for 30 mins. Stained cells were seeded and treated with anti-α-chain c-Met monoclonal antibodies for 6 days. Cells were harvested and dye retention in live cells were analysed by flow cytometry.

SNU-5 cells [7] = experiment: CellTiter-Glo luminescent cell viability assay; format: cell-based, human; conditions: SNU-5, 72 hrs; mAb 10 μg/mL, SU11274 5 μM
Description: as §1, §6

SNU-5 cells [8] = experiment: Annexin V staining (cell death); format: cell-based, human

T1 sequence (P08581 25-1390): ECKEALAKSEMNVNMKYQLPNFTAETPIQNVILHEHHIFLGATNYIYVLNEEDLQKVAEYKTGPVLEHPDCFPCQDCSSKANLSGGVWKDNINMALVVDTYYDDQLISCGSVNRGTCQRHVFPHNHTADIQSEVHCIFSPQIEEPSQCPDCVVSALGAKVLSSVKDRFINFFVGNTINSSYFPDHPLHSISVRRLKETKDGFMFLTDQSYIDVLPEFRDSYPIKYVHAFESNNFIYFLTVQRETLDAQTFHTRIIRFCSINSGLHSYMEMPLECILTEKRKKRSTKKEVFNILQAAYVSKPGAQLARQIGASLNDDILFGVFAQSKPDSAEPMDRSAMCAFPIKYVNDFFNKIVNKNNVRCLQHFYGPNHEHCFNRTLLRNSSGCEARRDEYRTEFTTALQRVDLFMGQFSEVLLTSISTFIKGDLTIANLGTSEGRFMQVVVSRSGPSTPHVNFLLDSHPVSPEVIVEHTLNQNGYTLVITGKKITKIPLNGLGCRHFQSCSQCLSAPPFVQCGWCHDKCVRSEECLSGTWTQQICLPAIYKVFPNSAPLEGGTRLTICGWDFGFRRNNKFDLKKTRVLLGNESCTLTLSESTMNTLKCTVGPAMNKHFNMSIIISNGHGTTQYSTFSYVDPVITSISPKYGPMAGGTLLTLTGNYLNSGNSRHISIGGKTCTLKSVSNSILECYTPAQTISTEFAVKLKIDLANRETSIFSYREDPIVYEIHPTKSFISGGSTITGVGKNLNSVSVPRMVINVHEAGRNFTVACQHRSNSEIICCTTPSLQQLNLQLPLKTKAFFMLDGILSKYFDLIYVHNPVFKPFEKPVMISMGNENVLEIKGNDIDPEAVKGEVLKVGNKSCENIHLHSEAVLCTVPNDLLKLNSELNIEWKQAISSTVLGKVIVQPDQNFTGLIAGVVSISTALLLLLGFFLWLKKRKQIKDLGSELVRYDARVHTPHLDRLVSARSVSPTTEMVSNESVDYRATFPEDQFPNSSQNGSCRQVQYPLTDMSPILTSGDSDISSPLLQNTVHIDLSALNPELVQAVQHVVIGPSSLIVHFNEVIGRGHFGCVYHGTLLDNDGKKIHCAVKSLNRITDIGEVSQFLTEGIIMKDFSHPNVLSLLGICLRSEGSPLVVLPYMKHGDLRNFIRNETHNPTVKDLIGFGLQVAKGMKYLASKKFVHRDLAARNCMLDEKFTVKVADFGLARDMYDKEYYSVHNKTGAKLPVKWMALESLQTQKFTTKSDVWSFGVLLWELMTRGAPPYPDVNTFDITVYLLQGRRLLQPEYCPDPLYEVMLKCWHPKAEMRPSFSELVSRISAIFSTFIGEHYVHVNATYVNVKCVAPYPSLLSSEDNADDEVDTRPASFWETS

B1: mAb 2: murine bivalent anti-α-chain c-Met monoclonal antibody, IgG1, kappa; CDRs SEQ ID NO: 2-7; epitope IEE and CPDC (antibody, listed as Homo sapiens)
heavy: QVQLKESGGGLVQPGGSLTLSCATSGFTFTDHYMSWVRQPPGKALEWLAFIRNKAKGYTTEYNASVRGRFTISRDNSQNIVYLQMNTLRTEDSATYYCARDGVGIAYWGQTLVTVSAAKTTPPSVYPLAP
light: SIVMTQSPLSLPVSLGDQASISCRSSQSLENINGNTYKNWYFQKPGQSPQLLIYRVSNRVSGVLDRFSGSGSGTDFTLKITRVEAEDLGVYFCLQVTHVPWTFGGGTKLEIKRADAAPTKSIS
With B1 the “cell growth (cell count)” value (SNU-5 cells [1]) was “strongest cell growth reduction; also recorded: reduction of SNU-5 cell growth; also recorded: most effective in reducing cell proliferation”, the “change of antibody binding between 4° C. and 37° C.” value [2] was “most drastic peak shift; also recorded: temperature sensitive” and the “mAb 2 binding to peptide O27” value (c-Met α-chain peptides [3]) was “does not bind”. The “mAb 2 binding to peptides O28 and O29” value (c-Met α-chain peptides [4]) was “equal affinity; also recorded: no binding preference”, the caspase activation [5] was “reduced caspase activation; also recorded: do not activate caspase activation” and the “CellTracker Green BODIPY fluorescence retention” value (SNU-5 cells [6]) was “retained significant levels of green fluorescence”. The cell viability (SNU-5 cells [7]) was “reduced cell viability” and the “cell death (annexin V staining)” value (SNU-5 cells [8]) was “do not cause cell death”.

Source: patent publication US9994644B2, “mAB 2 anti-Met antibody” (Agency for Science, Technology and Research, priority 2013, dated 2018)
